Assay [1] concerns PKCδVIII and Bcl2 expressed in SH-SY5Y neuronal cells. Kind of assay: Western blot of PKCδVIII and Bcl2 in SH-SY5Y neuronal cells. Format: cell-based, human. The settings on record: SH-SY5Y, G-CSF 100 ng/mL (5.3 nM), 24 h. As for the experimental part:
(§1) THP-1 cells or SH-SY5Y cells 3×10^6 cells in 5 mL media in a 25 cm^2 flask were treated with 100 ng/mL G-CSF or three different concentrations of the test drug for 24 h. In addition, a set of flasks were co-incubated with the combination of G-CSF and 3 concentrations of test drug. Whole cell lysates ([…]) were separated on 10% polyacrylamide gel electrophoresis-SDS (PAGE-SDS). Proteins were electrophoretically transferred to nitrocellulose membranes, blocked with 5% nonfat milk prepared on Tris buffered saline containing 0.1% Tween 20, washed and incubated with a polyclonal antibody against either Bcl2 (Cell Signaling, Danvers, Mass.) or PKCδVIII-specific polyclonal antibody (Jiang, K., et al. Biochemistry 2008, 47, 787-797). The house keeping gene GAPDH was used as an internal standard. Following incubation with anti-rabbit IgG-HRP, enhanced chemiluminesence (Pierce™, Thermo Scientific, Walthahm, Mass.) was used for detection and the gels were analyzed using UN-SCAN-IT™ software (Silk Scientific, Inc., Orem, Utah).
(§2) Statistical analysis. Densitometric results from Western blots were analyzed with two-tailed t-tests when only two groups were compared. In other analyses where 3 groups were compared, one-way ANOVA followed by t-tests with Dunnett's corrections for multiple comparisons was utilized. All data was presented as mean±SEM. All statistical analysis of data was done via PRISM4 or PRISM5 statistical analysis software (GraphPad Prism, La Jolla, Calif.). Neurohistologic analyses are performed using ANOVA. All comparisons were considered significant at level of P<0.05.

In assay [2] the test system is PKCδVIII and Bcl2 expressed in THP-1 monocytic cells. As to the kind of experiment: Western blot of PKCδVIII and Bcl2 in THP-1 monocytic cells. Format: cell-based, human. The settings on record: THP-1, G-CSF 200 ng/mL (10.6 nM), 24 h. As for the experimental part: as §1, with “In” for “THP-1 cells or SH-SY5Y cells 3×10^6 cells in 5 mL media in a 25 cm^2 flask were treated with 100 ng/mL G-CSF or three different concentrations of the test drug for 24 h. In”
as §2

For another assay, the system named is mouse model of TBI. The settings on record: earlier G-CSF work stated as background to Example 6; cited from earlier work.

Entries after “also recorded” stand apart in the source; their conditions may differ.

B1: G-CSF: Granulocyte-colony stimulating factor, a glycoprotein cytokine; natural ligand of G-CSF-R; SEQ ID NO: 1 (protein, listed as Homo sapiens)
chain: MAGPATQSPMKLMALQLLLWHSALWTVQEATPLGPASSLPQSFLLKCLEQVRKIQGDGAALQEKLVSECATYKLCHPEELVLLGHSLGIPWAPLSSCPSQALQLAGCLSQLHSGLFLYQGLLQALEGISPELGPTLDTLQLDVADFATTIWQQMEELGMAPALQPTQGAMPAFASAFQRRAGGVLVASHLQSFLEVSYRVLRHLAQP
As for B1, in assay [1], the Bcl2 expression result was “much greater at equivalent concentrations; also recorded: increased” and the PKCδVIII expression result is “much greater at equivalent concentrations; also recorded: increased”. Further, in assay [2], the Bcl2 expression result was “increased the expression of PKCδVIII and Bcl2”; the PKCδVIII expression entry is “increased the expression of PKCδVIII and Bcl2”. Moreover, in the assay with mouse model of TBI, the “recovery in the radial arm water maze (RAWM)” value was “significantly promoted recovery”.

(Values after US10813913B2, “Small molecules that mimic or antagonize actions of granulocyte colony-stimulating-factor (G-CSF)” (UNIVERSITY OF SOUTH FLORIDA, priority 2016, dated 2020).)
